Data as given in article PMC9369017.

Assays:
[1] = biological target: SARS-CoV-2 spike protein on Ramos-S cells (SARS-CoV-2) (UniProt P0DTC2); experiment: flow cytometry on cells
[2] = biological target: hexahistidine tagged RBD WT (SARS CoV-2, isolate Wuhan-Hu-1, aa residues 319-541) (SARS-CoV-2) (UniProt P0DTC2); experiment: peptide or protein array
EflACE2-Fc-WT (human) = EflACE2-Fc-WT (human) (UniProt Q9BYF1); experiment: BLI

| Substance | median fluorescence intensity [1] | IC50 [2] [nM] | Kd (EflACE2-Fc-WT (human)) [nM] |
| --- | --- | --- | --- |
| EflACE2-Fc-WT (from UniProt Q9BYF1 19-740) (Fc fusion) | 19600 | 10 | – |
| SARS-CoV-2 spike RBD (analyte of the BLI) (from UniProt P0DTC2) (domain or fragment) | – | – | 0.7 |
| flACE2-Fc-WT (from UniProt Q9BYF1 19-740) (Fc fusion) | 17200 | 80 | – |
| trACE2-Fc WT (from UniProt Q9BYF1 19-615) (Fc fusion) | 15500 | 114 | – |
| trACE2-Fc-kif (from UniProt Q9BYF1 19-615) (Fc fusion) | 16400 | – | – |
